Laboratory results from article PMC5473807, “Distribution and kinetics of the Kv1.3-blocking peptide HsTX1[R14A] in experimental rats” (Scientific Reports, 2017).
Read-outs that look alike come from different tables or passages of the source.

Tests used:
[1] = Blood clearance kinetics, arterial blood and PET; type: in vivo; conditions: whole blood, rat, read-out: blood clearance half-life corrected for the metabolites
Procedure: The procedures are described in detail elsewhere, [34], [35]. Rats were anesthetised using 9% ± 1% desflurane in 30% oxygen and placed on a heat mat. The animals were kept warm under anesthesia until the end of the scan with a total duration of 4 h. The anesthetised animals were localised in a prone position in the axial direction of the scanner. A needle catheter was installed in a lateral tail vein or subcutaneously in the neck for injection using a syringe pump. PET studies were performed with the dedicated small animal PETs NanoPET/CT (Mediso, Budapest, Hungary) and microPET^(R) P4 (Siemens Medical Solutions, Erlangen, Germany). […] Three-dimensional regions of interest (ROI) were determined for subsequent data analysis. The standardised uptake values (SUV, g/mL) and standardised uptake ratios (SUR, as ratio of the SUVs of the tissue of interest and the blood SUV, derived from a region over the caudal arteria abdominalis and vena cava) were used to quantify the activity uptake and kinetics.
The analysis of [^64Cu]Cu-NOTA-HsTX1[R14A] degradation was analysed in one rat after single intravenous injection. […] The samples were again centrifuged (3 min at 14,000 × g), resulting in the precipitate the protein bound fraction (plasma proteins) and the supernatants (e.g. plasma water fraction) were analysed by radio-TLC with RP18 aluminium foil, MeCN/0.1% TFA mixed with H2O/0.1% TFA (v/v 1:1). […]

[2] = Distribution in the blood compartments; type: in vivo; conditions: rat, i.v., 0-4 h
Procedure: The analysis of [^64Cu]Cu-NOTA-HsTX1[R14A] degradation was analysed in one rat after single intravenous injection. The gas-anaesthetised (8% desflurane, 30% oxygen, air) rat was prepared on a heating bed for the blood sampling. A needle catheter was inserted in a tail vein and fixed for the injection of the radiotracer and supplementation of the withdrawn volume by E-153 (electrolyte infusion solution). A small incision on the right hind limb was made and a small superficial artery was exposed. A thin tube (polyethylene, 0.3 mm inner and 0.6 mm outer diameter) was inserted, moved to the femoral artery and fixed. Arterial blood samples were collected at 1, 3, 5, 10, 20, 30, 120 min p.i of the [^64Cu]Cu-NOTA-HsTX1[R14A]. After the end of experiment the anaesthetised animals were euthanised by infusion of KCl solution. For the differentiation of the activity distribution in the blood compartments (Fig. 3b) were blood samples centrifuged (3 min at 14,000 × g) to obtain the plasma (plasma total and blood cells in the precipitate). One kidney was homogenised with PBS (30% w/v) and then centrifuged as described for the blood samples. Urine was treated in analogy. All the supernatants from blood, kidney and urine samples were mixed with equal volume of MeCN to precipitate the protein fraction. The samples were again centrifuged (3 min at 14,000 × g), resulting in the precipitate the protein bound fraction (plasma proteins) and the supernatants (e.g. plasma water fraction) were analysed by radio-TLC with RP18 aluminium foil, MeCN/0.1% TFA mixed with H2O/0.1% TFA (v/v 1:1). The TLC plates were measured by radioluminography as described above. Aliquots of the whole blood samples and of all supernatants were measured for the ^64Cu activity concentration in a well counter.

CSCC[C@@H]1NC(=O)[C@@H]2CSSC[C@H](NC(=O)[C@H](CO)NC(=O)[C@H](C)NC(=O)COCCOCCNC(=O)CN3CCN(CC(=O)O)CCN(CC(=O)O)CC3)C(=O)N[C@@H](CCCNC(=N)N)C(=O)N[C@@H]([C@@H](C)O)C(=O)N3CCC[C@H]3C(=O)N[C@@H](CCCCN)C(=O)N[C@@H](CC(=O)O)C(=O)N[C@H]3CSSC[C@H](NC(=O)[C@H](CCCCN)NC(=O)[C@H](CCCNC(=N)N)NC(=O)[C@H](CC(N)=O)NC1=O)C(=O)N[C@@H](CCCCN)C(=O)N[C@H]1CSSC[C@H](NC(=O)[C@@H]4CCCN4C(=O)[C@H](CC(=O)O)NC(=O)[C@H](C)NC3=O)C(=O)N[C@@H](C)C(=O)N[C@@H](CCCCN)C(=O)N[C@@H](CCC(=O)O)C(=O)N[C@@H]([C@@H](C)O)C(=O)NCC(=O)N[C@@H](CSSC[C@@H](C(N)=O)NC(=O)[C@H](CCCNC(=N)N)NC(=O)[C@H](CC(N)=O)NC1=O)C(=O)N1CCC[C@H]1C(=O)N[C@@H](Cc1ccc(O)cc1)C(=O)NCC(=O)N[C@@H](CCCCN)C(=O)N2 [[^64Cu]Cu-NOTA-HsTX1[R14A], metal not drawn]
half-life ([1]; iv, i.v.): 37 min | half-life ([1]; sc, s.c.): 51 min | fraction bound to plasma proteins ([2]; MeCN precipitate, % of total blood activity): 5 ± 3% | fraction in blood plasma ([2]; centrifugation 3 min at 14,000 x g): 82 ± 4 % of the whole blood ^64Cu activity | fraction in plasma water ([2]; supernatant after MeCN precipitation, % of total blood activity): 75 ± 3%
